Measurements as given in PMC9584609, “Determination of oligomeric states of proteins via dual-color colocalization with single molecule localization microscopy” (eLife, 2022).

B1: SLC26A3 tagged with mVenus and PAmCherry (natural protein, human, UniProt P40879 1-764, looked up)
chain: MIEPFGNQYIVARPVYSTNAFEENHKKTGRHHKTFLDHLKVCCSCSPQKAKRIVLSLFPIASWLPAYRLKEWLLSDIVSGISTGIVAVLQGLAFALLVDIPPVYGLYASFFPAIIYLFFGTSRHISVGPFPILSMMVGLAVSGAVSKAVPDRNATTLGLPNNSNNSSLLDDERVRVAAAASVTVLSGIIQLAFGILRIGFVVIYLSESLISGFTTAAAVHVLVSQLKFIFQLTVPSHTDPVSIFKVLYSVFSQIEKTNIADLVTALIVLLVVSIVKEINQRFKDKLPVPIPIEFIMTVIAAGVSYGCDFKNRFKVAVVGDMNPGFQPPITPDVETFQNTVGDCFGIAMVAFAVAFSVASVYSLKYDYPLDGNQELIALGLGNIVCGVFRGFAGSTALSRSAVQESTGGKTQIAGLIGAIIVLIVVLAIGFLLAPLQKSVLAALALGNLKGMLMQFAEIGRLWRKDKYDCLIWIMTFIFTIVLGLGLGLAASVAFQLLTIVFRTQFPKCSTLANIGRTNIYKNKKDYYDMYEPEGVKIFRCPSPIYFANIGFFRRKLIDAVGFSPLRILRKRNKALRKIRKLQKQGLLQVTPKGFICTVDTIKDSDEELDNNQIEVLDQPINTTDLPFHIDWNDDLPLNIEVPKISLHSLILDFSAVSFLDVSSVRGLKSILQEFIRIKVDVYIVGTDDDFIEKLNRYEFFDGEVKSSIFFLTIHDAVLHILMKKDYSTSKFNPSQEKDGKIDFTINTNGGLRNRVYEVPVETKF
notes: SLC26A3, human epithelial chloride-bicarbonate exchanger; The same construct was used for DCC-SMLM and hrCNE; also called epithelial chloride-bicarbonate exchanger SLC26A3; source: HEK293T, transfected; on fixed cells (DCC-SMLM) and in lysate (digitonin or DDM, hrCNE); not shown: mVenus, C-terminal, kept; PAmCherry, C-terminal, kept
B2: prestin (Slc26a5) tagged with mVenus and PAmCherry (natural protein, rat, UniProt Q9EPH0 1-744, looked up)
chain: MDHAEENEIPAETQKYLVERPIFSHPVLQERLHVKDKVTDSIGDKLKQAFTCTPKKVRNIIYMFLPITKWLPAYKFKEYVLGDLVSGISTGVLQLPQGLAFAMLAAVPPVFGLYSSFYPVIMYCFFGTSRHISIGPFAVISLMIGGVAVRLVPDDIVIPGGVNATNGTEARDALRVKVAMSVTLLSGIIQFCLGVCRFGFVAIYLTEPLVRGFTTAAAVHVFTSMLKYLFGVKTKRYSGIFSVVYSTVAVLQNVKNLNVCSLGVGLMVFGLLLGGKEFNERFKEKLPAPIPLEFFAVVMGTGISAGFNLHESYSVDVVGTLPLGLLPPANPDTSLFHLVYVDAIAIAIVGFSVTISMAKTLANKHGYQVDGNQELIALGICNSIGSLFQTFSISCSLSRSLVQEGTGGKTQLAGCLASLMILLVILATGFLFESLPQAVLSAIVIVNLKGMFMQFSDLPFFWRTSKIELTIWLTTFVSSLFLGLDYGLITAVIIALLTVIYRTQSPSYTVLGQLPDTDVYIDIDAYEEVKEIPGIKIFQINAPIYYANSDLYSSALKRKTGVNPAIIMGARRKAMRKYAKEVGNANIANATVVKVDAEVDGENATKPEEEDDEVKFPPIVIKTTFPEELQRFLPQGENIHTVILDFTQVNFMDSVGVKTLAGIVKEYGDVGIYVYLAGCSAQVVNDLTSNRFFENPALKELLFHSIHDAVLGSQVREAMAEQETTVLPPQEDMEPNATPTTPEA
notes: prestin (Slc26a5), rat motor protein of cochlear outer hair cells; The same construct was used for DCC-SMLM and hrCNE; also called SLC26A5/prestin; source: HEK293T, transfected; on fixed cells (DCC-SMLM) and in lysate (digitonin or DDM, hrCNE); not shown: mVenus, C-terminal, kept; PAmCherry, C-terminal, kept

Molecular target: the molecule itself
Assay: dual-color colocalization single molecule localization microscopy (DCC-SMLM); HEK293T cells transiently transfected, fixed with cold methanol; each subunit C-terminally tagged with mVenus and PAmCherry; colocalization ratio compared with the calibrated DCC model (coefficient of mismatch M^2) and with reference proteins (two-sample K.-S. test)

Protein	stoichiometry N
B1	2
B2	2
